Biological target: receptor for advanced glycation end products (human (endogenous in MDA-MB-231)) (UniProt Q15109)
Sequence of UniProt Q15109 (Q15109 23-404): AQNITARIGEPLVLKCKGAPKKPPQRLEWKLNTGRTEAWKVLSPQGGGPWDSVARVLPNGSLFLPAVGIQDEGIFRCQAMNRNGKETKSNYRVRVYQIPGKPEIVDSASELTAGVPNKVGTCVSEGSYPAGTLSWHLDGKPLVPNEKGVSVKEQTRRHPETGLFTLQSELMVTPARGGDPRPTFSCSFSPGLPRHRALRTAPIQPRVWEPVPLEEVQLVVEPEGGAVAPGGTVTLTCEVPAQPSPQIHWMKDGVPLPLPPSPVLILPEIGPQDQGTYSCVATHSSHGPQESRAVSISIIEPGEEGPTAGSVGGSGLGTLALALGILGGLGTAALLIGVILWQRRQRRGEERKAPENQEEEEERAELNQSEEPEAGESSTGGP

Work on “recombinant human Ac-APE1/Ref-1 (from UniProt P27695 1-318) (natural protein)” yielded a DNA fragmentation of hyperacetylated MDA-MB-231 cells treated with rh Ac-APE1/Ref-1 after pretreatment with anti-APE1/Ref-1 antibody (2 µg, 2 h), against anti-IgG treated cells of 35% and a cell viability of hyperacetylated MDA-MB-231 cells treated with rh Ac-APE1/Ref-1 after pretreatment with anti-APE1/Ref-1 antibody (2 µg, 2 h) of 72.8%.

— PMC5992149
